Read-outs that look alike come from different tables or passages of the source. Each block holds one molecule with its values, some of them ahead of it.
Assays:
[1] = target: Thermofilum pendens pyruvate kinase (Thermofilum pendens); assay: native gel or EMSA; BN-PAGE, overnight at 4°C, 150 μg of TpPK; RMPK as molecular weight marker; native band of approximately 200 kDa
[2] = target: T1, Thermofilum pendens pyruvate kinase (TpPK) (Thermofilum pendens, UniProt A1RX09); assay: dead-end inhibition kinetics, LDH/NADH-coupled assay, […]°C, pH […]; format: biochemical
T1 construct: gene Tpen_0330; full-length with N-terminal His6 tag and TEV site (23 additional residues); homotetramer

purified protein = substrate: C=C(OP(=O)(O)O)C(=O)O; assay: purified protein; settings: Mg2+ active site; random-order binding with ADP-Mg
[3] = substrate: Nc1ncnc2c1ncn2[C@@H]1O[C@H](COP(=O)(O)OP(=O)(O)O)[C@@H](O)[C@H]1O; assay: initial velocity kinetics (Km), LDH/NADH-coupled assay; format: biochemical, Thermofilum pendens; settings: Mg2+ active site; random-order binding with PEP

Molecule: Nc1ncnc2c1ncn2[C@@H]1O[C@H](COP(=O)(O)O)[C@@H](O)[C@H]1O [AMP]
- Ki ([2]; read-out: K i (AMP)): 35 ± 1.2 mM

B1: Thermofilum pendens pyruvate kinase (TpPK) (Thermofilum pendens Hrk 5) (protein)
chain: MAKVKLVATLGPSSWSEETMKRMVAEGVNAFRLNFSHVDYARFEELAKQVRRLETPLRPLTLIADLQGPVIRLGEFAPFQVRPGDRVTFTLSSKTEEKYAVPVPNGVFFEIVREGDEVLVEGGRLAFRIVDAGPEKAVGEALLEGEVKPRKTVTVRGKDIPLPTITEKDLRDIEFSVKAGFDAIALSFVRSSSDVQRLRDILFDYGAEDVKIIAKIETKSAVEDLDSILQKSDAALVARGDLANFYGLEEIYSIQRYIISRARRFGKPSIVATQLLESMISNPLPTRSEVVDVITAVRMGADALLLAGETAAGKYPVESVYWLRRIVEEAEREPLEVEDVAPDKSDLYESIAKGVVSLAEVISGKIIAFSEKGNTARRISKFRPKAGLIVFTNDPATARYVNMIYGVRVVYDPSLSKADQNLFSKMLSKALEHNLVNLGDLVVFTSGRRRGSTDLVSVERVKSE
notes: full-length with N-terminal His6 tag and TEV site (23 additional residues); homotetramer
- Km (purified protein): 380 ± 30 µM
- Km [3]: 160 ± 10 µM

Now from value to molecule:

- stoichiometry N [1]: 4
Molecule: Thermofilum pendens pyruvate kinase (enzyme)

- Ki ([2]; read-out: K i (oxalate)): 0.05 ± 0.002 mM
Molecule: O=C(O)C(=O)O [oxalate]
